Patent publication US20160185837A1, “GIP AND GLP-1 RECEPTOR DUAL-AGONISTS FOR THE TREATMENT OF DIABETES” (Medimmune Limited, priority 2013, published 2016)
Positions count from the first letter of the chain named. Ends that are not written are not given here.

T1: human GIP receptor (human) (UniProt P48546)
T1 sequence (looked up): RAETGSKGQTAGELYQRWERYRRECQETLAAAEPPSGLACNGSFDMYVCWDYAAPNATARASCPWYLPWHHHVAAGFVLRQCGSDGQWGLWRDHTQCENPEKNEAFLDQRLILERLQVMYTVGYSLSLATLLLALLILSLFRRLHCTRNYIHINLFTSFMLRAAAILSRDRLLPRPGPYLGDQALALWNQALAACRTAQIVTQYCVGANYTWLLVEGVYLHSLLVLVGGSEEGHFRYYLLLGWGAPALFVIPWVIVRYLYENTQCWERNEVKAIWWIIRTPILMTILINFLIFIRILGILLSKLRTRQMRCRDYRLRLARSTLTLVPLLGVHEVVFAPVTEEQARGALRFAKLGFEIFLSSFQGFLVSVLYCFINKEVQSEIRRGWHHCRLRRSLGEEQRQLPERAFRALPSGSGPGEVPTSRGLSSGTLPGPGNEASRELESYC

T2: rat GIP receptor (rat) (UniProt P43219)
T2 sequence (looked up): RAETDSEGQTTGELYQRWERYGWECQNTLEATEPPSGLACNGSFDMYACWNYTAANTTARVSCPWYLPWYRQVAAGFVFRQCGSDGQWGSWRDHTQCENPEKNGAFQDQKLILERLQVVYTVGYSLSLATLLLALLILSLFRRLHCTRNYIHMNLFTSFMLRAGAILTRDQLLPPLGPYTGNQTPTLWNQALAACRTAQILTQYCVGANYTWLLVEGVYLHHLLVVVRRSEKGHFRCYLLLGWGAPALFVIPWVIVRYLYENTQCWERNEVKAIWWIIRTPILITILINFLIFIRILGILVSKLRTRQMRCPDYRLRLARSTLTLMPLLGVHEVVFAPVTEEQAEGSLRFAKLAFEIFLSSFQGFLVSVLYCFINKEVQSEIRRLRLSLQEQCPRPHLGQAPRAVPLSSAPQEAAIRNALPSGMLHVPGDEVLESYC

T3: mouse GIP receptor (mouse) (UniProt Q0P543)
T3 sequence (looked up): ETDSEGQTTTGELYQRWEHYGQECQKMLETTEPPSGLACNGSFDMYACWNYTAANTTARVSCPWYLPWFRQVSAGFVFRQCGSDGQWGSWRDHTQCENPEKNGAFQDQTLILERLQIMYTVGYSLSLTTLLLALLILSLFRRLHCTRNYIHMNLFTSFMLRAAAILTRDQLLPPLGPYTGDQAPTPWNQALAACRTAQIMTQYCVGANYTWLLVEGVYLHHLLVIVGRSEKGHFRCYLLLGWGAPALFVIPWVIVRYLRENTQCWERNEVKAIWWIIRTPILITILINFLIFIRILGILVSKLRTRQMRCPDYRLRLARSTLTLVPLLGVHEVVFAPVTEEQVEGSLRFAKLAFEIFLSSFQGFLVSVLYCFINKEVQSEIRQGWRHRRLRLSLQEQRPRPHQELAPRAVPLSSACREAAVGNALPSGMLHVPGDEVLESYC

B1: IP381 (Fc fusion)
chain: YSEGTFTSDYSKLLEEEAVRLFIEYLLAGGGGGGSGGGGSGGGGSGGGGSATHTCPPC
B2: IP412 (Fc fusion)
chain: B1 chain with V19N, Y25W
B3: IP329 (Fc fusion)
chain: YSEGTFTSDYSKLLERQAIDEFIAELLKGGGGGGGSGGGGSGGGGSGGGGSGGGGSGGGGSA
B4: IP301 (Fc fusion)
chain: YSEGTFTSDVSSYLEREAIDEFIAWLLKGGAAAGGSGSTASSGSGSATGGGGAATHTCPPC
B5: IP315 (Fc fusion)
chain: B4 chain with T7I, V10Y, E17Q
B6: IP310 (Fc fusion)
chain: B4 chain with L14M, E17Q, G30K
B7: IP312 (Fc fusion)
chain: B4 chain with T7I, L14M, E17Q
B8: IP309 (Fc fusion)
chain: B4 chain with T7I, E17Q
B9: IP306 (Fc fusion)
chain: B4 chain with V10Y, S12K, Y13L, E17Q
B10: IP307 (Fc fusion)
chain: B4 chain with L14M, E17Q, G29Q

Target: cynomolgus monkey GLP-1 receptor (cynomolgus monkey) (UniProt F8V479)
Sequence (F8V479 entry or part of it): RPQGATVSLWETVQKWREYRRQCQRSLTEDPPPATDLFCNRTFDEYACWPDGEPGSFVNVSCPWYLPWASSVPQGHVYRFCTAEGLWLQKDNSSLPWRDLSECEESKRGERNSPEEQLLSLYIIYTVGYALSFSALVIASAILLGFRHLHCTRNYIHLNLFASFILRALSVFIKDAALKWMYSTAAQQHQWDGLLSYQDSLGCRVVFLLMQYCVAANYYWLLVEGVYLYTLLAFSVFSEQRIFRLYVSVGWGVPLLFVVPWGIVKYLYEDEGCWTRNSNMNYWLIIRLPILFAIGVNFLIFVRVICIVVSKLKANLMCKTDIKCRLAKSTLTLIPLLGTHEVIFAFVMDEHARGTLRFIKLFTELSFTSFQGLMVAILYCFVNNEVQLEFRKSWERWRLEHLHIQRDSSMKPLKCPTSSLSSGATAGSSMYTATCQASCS
Assay: cell-based or functional assay

Binder | cAMP EC50, 4.2% cyno serum albumin
HGEGTFTSDVSSYLEEQAAKEFIAWLVKGR (Fc fusion, not shown: a dimerising Fc or GST, also: fused to linker, hinge and IgG4 Fc (not given here)) [GLP-1 analogue-Fc (gamma4) fusion control] | 0.011 nM

Target: human glucagon receptor (human) (UniProt P47871)
Sequence (P47871 26-477): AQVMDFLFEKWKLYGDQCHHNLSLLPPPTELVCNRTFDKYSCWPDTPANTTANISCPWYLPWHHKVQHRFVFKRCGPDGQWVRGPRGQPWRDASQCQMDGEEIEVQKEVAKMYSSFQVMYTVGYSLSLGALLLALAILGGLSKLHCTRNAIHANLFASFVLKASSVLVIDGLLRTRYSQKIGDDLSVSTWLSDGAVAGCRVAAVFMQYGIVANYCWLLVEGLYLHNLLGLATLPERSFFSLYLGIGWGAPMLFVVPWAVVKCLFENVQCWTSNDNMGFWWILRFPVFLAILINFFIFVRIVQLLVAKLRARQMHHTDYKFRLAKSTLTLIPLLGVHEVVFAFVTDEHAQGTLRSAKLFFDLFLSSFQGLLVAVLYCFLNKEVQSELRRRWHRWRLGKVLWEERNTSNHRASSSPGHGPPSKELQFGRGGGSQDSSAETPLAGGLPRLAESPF
Assay: cell-based or functional assay

Binder | cAMP EC50
B1 | 18 nM
B2 | > 440 nM
B3 | > 1430 nM
B4 | 12000 nM
B5 | 280 nM
B6 | 3700 nM
B7 | > 5310 nM
B8 | 900 nM
B9 | 220 nM
B10 | 4100 nM

Target: T1, human GIP receptor (human)
Assay: cell-based or functional assay

Binder | cAMP EC50 | cAMP EC50, hGIPr (C3) line
B1 | 0.0099 nM | 
B2 |  | 1.3 nM
B3 | 0.011 nM | 
B4 | 0.12 nM | 
B5 | 0.024 nM | 
B6 | 0.15 nM | 
B7 | 0.048 nM | 
B8 | 0.086 nM | 
B9 | 0.011 nM | 
B10 | 0.091 nM | 

Target: mouse GLP-1 receptor (mouse) (UniProt O35659)
Sequence (O35659 22-463): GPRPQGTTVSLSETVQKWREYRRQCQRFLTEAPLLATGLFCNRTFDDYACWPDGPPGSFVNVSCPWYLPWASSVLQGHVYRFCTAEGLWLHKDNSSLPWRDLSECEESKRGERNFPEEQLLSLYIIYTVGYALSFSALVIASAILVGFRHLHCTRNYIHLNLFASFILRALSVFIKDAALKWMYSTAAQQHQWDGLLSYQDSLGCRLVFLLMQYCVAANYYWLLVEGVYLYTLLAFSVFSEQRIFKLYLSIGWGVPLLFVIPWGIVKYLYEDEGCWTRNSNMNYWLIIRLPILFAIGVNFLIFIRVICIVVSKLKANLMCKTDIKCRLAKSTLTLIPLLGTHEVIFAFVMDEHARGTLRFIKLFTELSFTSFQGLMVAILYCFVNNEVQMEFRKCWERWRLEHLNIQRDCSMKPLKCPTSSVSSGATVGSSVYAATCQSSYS
Assay: cell-based or functional assay

Binder | cAMP EC50
B1 | 0.73 nM
B2 | 1.2 nM
B3 | 9 nM
B4 | 1.9 nM
B5 | > 5460 nM
B6 | 1.4 nM
B7 | > 1060 nM
B8 | 16 nM
B9 | 0.25 nM
B10 | 6.5 nM

Target: T2, rat GIP receptor (rat)
Assay: cell-based or functional assay

Binder | cAMP EC50
B1 | 0.045 nM
B2 | 0.018 nM
B3 | 0.06 nM
B4 | 4.7 nM
B5 | 0.096 nM
B6 | 5.2 nM
B7 | 1.2 nM
B8 | 1.3 nM
B9 | 0.026 nM
B10 | 5.2 nM

Target: cynomolgus monkey glucagon receptor (cynomolgus monkey)
Assay: cell-based or functional assay

Binder | cAMP EC50, 4.2% cyno serum albumin
HGEGTFTSDVSSYLEEQAAKEFIAWLVKGR (Fc fusion, not shown: a dimerising Fc or GST, also: fused to linker, hinge and IgG4 Fc (not given here)) [GLP-1 analogue-Fc (gamma4) fusion control] | > 1000 nM

Target: rat GLP-1 receptor (rat) (UniProt P32301)
Sequence (P32301 22-463): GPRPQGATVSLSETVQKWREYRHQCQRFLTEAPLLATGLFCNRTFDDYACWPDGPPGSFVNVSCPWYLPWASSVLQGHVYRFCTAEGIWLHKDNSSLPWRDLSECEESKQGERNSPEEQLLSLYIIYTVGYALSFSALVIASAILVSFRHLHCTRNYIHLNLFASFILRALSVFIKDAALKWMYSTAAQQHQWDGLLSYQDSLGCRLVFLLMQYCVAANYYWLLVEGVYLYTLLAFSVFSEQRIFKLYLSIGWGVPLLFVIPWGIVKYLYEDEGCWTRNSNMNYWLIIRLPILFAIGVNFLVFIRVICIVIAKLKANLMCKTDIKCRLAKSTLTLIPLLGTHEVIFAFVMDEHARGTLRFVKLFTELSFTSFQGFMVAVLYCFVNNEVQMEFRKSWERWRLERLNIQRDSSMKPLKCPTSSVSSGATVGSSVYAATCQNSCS
Assay: cell-based or functional assay

Binder | cAMP EC50
B1 | 0.027 nM
B2 | 0.022 nM
B3 | 0.18 nM
B4 | 0.058 nM
B5 | 13 nM
B6 | 0.038 nM
B7 | 5.4 nM
B8 | 1.7 nM
B9 | 0.015 nM
B10 | 0.21 nM

Target: human GLP-1 receptor (human) (UniProt P43220)
Sequence (P43220 24-463): as the sequence (F8V479 entry or part of it) above, with N112S, S120F, G202S, V205L, F237L, R241W, V249I counted along it
Assay: cell-based or functional assay

Binder | cAMP EC50
B1 | 0.091 nM
B2 | 0.073 nM
B3 | 1.4 nM
B4 | 0.31 nM
B5 | > 5460 nM
B6 | 0.35 nM
B7 | > 5310 nM
B8 | 7.7 nM
B9 | 0.1 nM
B10 | 1.6 nM

Target: T3, mouse GIP receptor (mouse)
Assay: cell-based or functional assay

Binder | cAMP EC50
B1 | 5.4 nM
B2 | 0.4 nM
B3 | 2.6 nM
B4 | 22 nM
B5 | 0.36 nM
B6 | 31 nM
B7 | 16 nM
B8 | 15 nM
B9 | 0.25 nM
B10 | 31 nM
